Results reported in patent publication US20050118646A1.

What was measured:
[1] = target: Neutravidin (UltraLink neutravidin beads, Pierce; neutravidin protein) (UniProt P02701); experiment: Western blot (streptavidin-HRP) of sample and supernatant after binding to Neutravidin beads
[2] = target: Neutravidin (UltraLink neutravidin beads, Pierce; neutravidin protein) (UniProt P02701); experiment: ELIFA; binding of the biotinylated protein to Ultralink Neutravidin beads (through biotin)

Chain of UniProt P02701 (P02701 25-152): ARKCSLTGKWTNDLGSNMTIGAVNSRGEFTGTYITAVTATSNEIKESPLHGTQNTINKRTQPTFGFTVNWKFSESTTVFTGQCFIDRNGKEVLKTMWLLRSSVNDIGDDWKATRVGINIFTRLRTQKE

| Substance | percent bound to the beads [1] [%] | Binding [%] [2] [%] |
| --- | --- | --- |
| E24-tagged NAPA (AviTag-TEV cleavage site-His6-PrC-NAPA), biotinylated (from UniProt P54920 1-295) | > 80 | 100 |
| E25-tagged NAPA (AviTag-(G4S)2-TEV cleavage site-His6-PrC-NAPA), biotinylated (from UniProt P54920 1-295) | > 80 | 100 |

Continued, values first:

| percent bound to the beads [1] [%] | Binding [%] [2] [%] | Substance |
| --- | --- | --- |
| > 80 | 100 | E24-tagged CDKN1b (AviTag-TEV cleavage site-His6-PrC-CDKN1b), biotinylated (from UniProt P46527 1-198) |
| > 80 | 100 | E24-tagged Grb2 (AviTag-TEV cleavage site-His6-PrC-Grb2), biotinylated (from UniProt P62993 1-217) |
| > 80 | 100 | E25-tagged CDKN1b (AviTag-(G4S)2-TEV cleavage site-His6-PrC-CDKN1b), biotinylated (from UniProt P46527 1-198) |
| > 80 | 100 | E25-tagged Grb2 (AviTag-(G4S)2-TEV cleavage site-His6-PrC-Grb2), biotinylated (from UniProt P62993 1-217) |
